Laboratory results taken from patent US20200207830A1, “TREM2 MUTANTS RESISTANT TO SHEDDASE CLEAVAGE” (NOVARTIS AG, priority 2017, published 2020).

What was measured:
BWZ-lacZ-mDAP12 cells = test: Reporter gene assay in BWZ cells; type: cell-based; conditions: stably expressed with mDAP12, activating anti-TREM2 mAb vs isotype control, 16 h, compared with BWZ-TREM2-WT cells
Protocol: BWZ thymoma reporter cells, which express lacZ under control of the promoter for nuclear factor of activated T cells (NFAT, Hsieh et al, Journal of Neurochemistry 109, 1144-1156, 2009) were transfected to co-express mDAP12 and WT hTREM2 or T2double TREM2. Cells were seeded in RPMI without phenol red supplemented with 2% FBS and 1% non-essential amino acids on high binding microtiter plates (Greiner) pre-coated with rat anti-mouse/human TREM2 mAb (R&D, MAB17291) or isotype control. Cell culture was continued for 16 h. Reporter gene activity was assessed with the Beta-glo assay system (Promega) according to the manufacturer's recommendations using an Envision 2104 multilabel reader (Perkin Elmer).
Next it was tested whether the T2-double-TREM2 construct retained functionality. To this end this mutant was stably transfected into BWZ cells that already expressed mouse DAP12 and a beta-Gal reporter driven by NFAT (Hsieh, Journal of Neurochemistry 109, 1144-1156, 2009). mDAP12 expressed without TREM2 in this cell lines represents background reporter gene activity (RGA) in this system. […] Thus, the T2-double-TREM2 construct retained TREM2 functions.

[1] = molecular target: T1, TREM2 stalk region derived synthetic peptide, Peptide 4 (H-SI cleavage site replaced with IPP)
T1 chain: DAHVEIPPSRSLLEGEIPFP

[2] = molecular target: T2, TREM2 stalk region derived synthetic peptide, Peptide 5 (H-SI cleavage site replaced with IPD)
T2 chain: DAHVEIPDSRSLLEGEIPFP

[3] = molecular target: T3, TREM2 stalk region derived synthetic peptide, Peptide 3
T3 chain: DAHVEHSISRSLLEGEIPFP

[4] = molecular target: T4, TREM2 stalk region derived synthetic peptide, Peptide 6 (H-SI cleavage site replaced with IDP)
T4 chain: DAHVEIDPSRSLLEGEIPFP

B1: T2-double: human TREM2 mutant combining T2-YGG and T2-WFR mutations; SEQ ID NO: 48 (protein)
chain: MEPLRLLILLFVTELSGAHNTTVFQGVAGQSLQVSCPYDSMKHWGRRKAWCRQLGEKGPCQRVVSTHNLWLLSFLRRWNGSTAITDDTLGGTLTITLRNLQPHDAGLYQCQSLHGSEADTLRKVLVEVLADPLDHRDAGDLWFPGESESFEDAHVYGGWGGWGPEGEIWFRWTSILLLLACIFLIKILAASALWAAAWHGQKPGTHPPSELDCGHDPGYQLQTLPGLRDT
Reporter gene activity (RGA) after TREM2 activation (BWZ-lacZ-mDAP12 cells): comparable activity

B2: recombinant ADAM10 (protein)
chain: TTSAEKNTCQLYIQTDHLFFKYYGTREAVIAQISSHVKAIDTIYQTTDFSGIRNISFMVKRIRINTTADEKDPTNPFRFPNIGVEKFLELNSEQNHDDYCLAYVFTDRDFDDGVLGLAWVGAPSGSSGGICEKSKLYSDGKKKSLNTGIITVQNYGSHVPPKVSHITFAHEVGHNFGSPHDSGTECTPGESKNLGQKENGNYIMYARATSGDKLNNNKFSLCSIRNISQVLEKKRNNCFVESGQPICGNGMVEQGEECDCGYSDQCKDECCFDANQPEGRKCKLKPGKQCSPSQGPCCTAQCAFKSKSEKCRDDSDCAREGICNGFTALCPASDPKPNFTDCNRHTQVCINGQCAGSICEKYGLEECTCASSDGKDDKELCHVCCMKKMDPSTCASTGSVQWSRHFSGRTITLQPGSPCNDFRGYCDVFMRCRLVDADGPLARLKKAIFSPELYENIAE
in vitro cleavage of peptide by ADAM10 [1]: Peptide 4, with its IPP replacement for the H-SI cleavage site, appeared to be cleavage resistant in vitro
in vitro cleavage of peptide by ADAM10 [2]: Peptides 5 and 6 were slowly cleaved by ADAM10 (data not shown)
in vitro cleavage of peptide by ADAM10, HPLC [3]: The same analysis was carried out with ADAM10, and a very similar cleavage pattern was obtained (data not shown)
in vitro cleavage of peptide by ADAM10 [4]: Peptides 5 and 6 were slowly cleaved by ADAM10 (data not shown)
